Assay in all cases: high-speed cosedimentation
One experiment concerns the target γ-actin (Mus musculus, UniProt P63260).
Experiment [1] addresses platelet actin (85% β-actin, 15% γ-actin) (Homo sapiens, UniProt P60709).
Another experiment deals with α-skeletal F-actin (Oryctolagus cuniculus, UniProt P68135).

Positions count from the first letter of the chain named. Names and notes keep the numbering of the source.

B1: fascin-2 (protein)
chain: MPTNGLHQVLKIQFGLVNDADRYLTAESFGFKVNASAASLKRKQIWVLEPDPGQGTAVLFRSSHLGRYLSAEEDGRVACEMDQPGRDCRFLVLPQPDGRWVLQSEPHGRFFGGIEDRLSCFATAISPAELWTVHLAIHPQAHLLSVSRRRYVHLCLQEDEMAADGDMPWGVDALVTLIFQSRRYCLKSYDSRYLRSDGRLVWEPEAHACYTLEFKAGKLAFKDCDGRYLAPVGPAGTLKAGRNTRPSKDELFDLEQSHPQVVLVAANRRYISVRQGINVSANQDEELGHETFLMQIDQETKKCTFYSSTGGYWTLVTHGGIQATATQVSANTMFEIEWHGRRVALKASNGRFVCMKKNGQLAAISDFVGEDELFTLKLINRPLLVLRGLDGFVCHRRGSNQLDTNRSTYDVFHLSFRDGAYQIRGRGGGFWYTGSHGSVCSDGDLAEDFLFEFRERGRLAIRALSGKYLRGGASGLLRADADLPVGEALWEY
For orientation: Kd means the concentration at which binding is half-saturated. Turning to B1, the equilibrium dissociation constant (Kd) with γ-actin was 6.17 µM; in experiment [1], 4.15 µM.

B2: fascin-2 p.R109H (protein)
chain: B1 chain with R109H
Consider B2, for which the affinity with α-skeletal F-actin, expressed as Kd, was 5.97 µM.

B3: fascin-2 (protein)
chain: B1 chain
modifications: N-terminal flag tag, phalloidin-stabilized F-actin
Consider B3, for which, in the experiment with α-skeletal F-actin, the Kd worked out at 4.95 µM.

B4: fascin-2 S39A (protein)
chain: B1 chain with S39A
As for B4, the dissociation constant (Kd) in experiment [1] amounted to 3.91 µM. This lies in the single-digit micromolar range.

Source of the values: PMC3718021 (2013).
